Some results are limits rather than exact numbers.

We go through 28 sequences from the domain aggregation screens of Martell et al. (2025).

The nature of this series: soluble fraction after stress (log2 fold change); higher = more stays soluble; pooled small domains, quantitative proteomics. The following applies: stress: pH 4. In a few lines:
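With high-throughput quantitative proteomics, pooled custom libraries of small protein domains were measured after pH 4 stress. Each domain's soluble amount after the stress gives a fold change taken as aggregation propensity. Higher log2 values mean more of the domain stayed soluble.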
Take “HMEPSERYKALQSLLPDYAKRLKKKGVTRHQLFLEYRLTHPDGYARSRFGTYFQAYLALSHP”: the “soluble fraction (log2)” value was at least 0.43.

As for “HMEPTLVVARDKDAKSPLVAKLMKELGVDAAPRVIVDDSVIGGAKLSHNHTEIDATYKTALINLYQAIT”, the “soluble fraction (log2)” value was -0.0179.

For the sequence “HMEPVFSDPARQTLYQEVMELPAKYRVPLYLYYYEGYKVDEVGELLGLNASTVQTRLARARAKLKIQL”, the “soluble fraction (log2)” value was -0.17.

For the sequence “HMEQETVTVPDLVGKDVVAAQAELHEMGLSGKPDGTGTTVVSQFPVAGARVLKHTNVILYTED”, the “soluble fraction (log2)” value stood at 0.0839.

In the case of “HMEQFRENIVRIYMEIDDYENGAKFLEMGNNRDASFYELAGDFYKYFGENELANENYDLAISA”, the “soluble fraction (log2)” value is -1.39.

As for “HMEQIPEEYKKIYSLITDIPININDIAKKSLLELREVSSKLTMLELDGKVVKLPGNMYIRGDL”, the “soluble fraction (log2)” value was -0.0736.

Consider “HMEQKELAPLVPQEDGSVKLTNLAGYSMREVAAALEGGNLSLIPIGSGTSWKQDPAPGTVLQPGNTVTVYF”, for which the “soluble fraction (log2)” value was -0.209.

For the sequence “HMEQPLSLKLANNAFSRFWGNANPAEKDTQPNNSDIAKWVIEQSGGKITQTMADKIAQIIRPEWAA”, the “soluble fraction (log2)” value was found to be 0.25.

In the case of “HMEQSGDELKTWVDQAIAAYPEKVKEYQQGKKGLLALFIGEVMKRSKGTADPKKVNQLVTEALS”, the “soluble fraction (log2)” value is -0.211.

As to “HMEQTMNDMLKLVDLLPQNQQDIVRMRFYENMSFKEIAESNQISINTALGRMRYAILNLRKYAAERNL”, the “soluble fraction (log2)” value is -1.57.

For “HMEQVLDEEIIKSAVQKVIKDNPSAVSDYKAGKKTAFQFLIGKAMAELQGKGHPGKISELLEKE”, the “soluble fraction (log2)” value amounted to 0.257.

Turning to “HMEQVQQIPIEELFPFKEHPFKVLDDEAMQRTVESVAQYGVLAPLIARPRPEGGYEIISGHRRQHAAELYR”, the “soluble fraction (log2)” value is -0.445.

“HMEQWVSIEVEPGIRLDVALTEATQKSRSFIQNLIAEQRVLVNGQPKKANYKVRPGDHVELNYPEPT”: the “soluble fraction (log2)” value was -0.415.

As to “HMEREKTYLMPDLIGRKAERVVPRLQASGFKVEDIRHVYYPGLEKGVIVRQSPPGGYPIQKRNLINLEVS”, the “soluble fraction (log2)” value was 0.0984.

On to “HMERLKKYLDDVRTFLPGTNPKKVDEILREIESHVLERAEREHGEVNDNAVAMSIKEYGSPEEVAARYYEG”, for which the “soluble fraction (log2)” value was -0.29.

For “HMERLSNQVYAILKEMIADYRFNPGARINVEQIAKEVGASRTPVWEAVHRLVQEGLLENIPNRGVFML”, the “soluble fraction (log2)” value is -1.11.

For the sequence “HMERNAEDFAAKYQEIYQDMFRFALYTLKNRQEAEDVVSETVLDAWKGIEGLKNESAFSAWMFRILVNK”, the “soluble fraction (log2)” value is -0.325.

Turning to “HMESADEESNALMYDGLLAMRGKRYEVALEFFDALVKHDPDFAEGWNKRATVLYLLGRYERSIADIKQVLA”, the “soluble fraction (log2)” value was -0.0176.

“HMESAEQTGEELAARVNVLQTVSQALARELGREAAVEELADKMKMTVDEVKDIMKMAMDAMSM”: the “soluble fraction (log2)” value was -1.59.

Consider “HMESAESRVDLIGMIGEAITDLRPAGTAQFGEERIDVVSESEWITEGSTVKVVSAEGYRHVVRVME”, for which the “soluble fraction (log2)” value is -1.01.

Consider “HMESENANVNRAMLTGIASMHAGQLETALNKFNEVIQLAPDFAEGWNKRATIFYLMKKFDRSVNDIAQTLK”, for which the “soluble fraction (log2)” value is -0.741.

With “HMESFGVAIKRLREAQGWTRADFLRQLGKTGYYMHATTLKRIEEGEQIAKVHEAVIISRLFGVTVEEMG”, the “soluble fraction (log2)” value is -1.3.

For “HMESGFEAVREVARHGSFANAAKALGVSGPAVSRQVKSLEERLGLVFFHRTTRMVTLTEAGQQLVDTLD”, the “soluble fraction (log2)” value was -0.211.

“HMESGNLIFTNAPIADVVNAIETRYGKKLQASNQTSDLQFTGIFKNTDEFSTVVKTIEIALGLQFEV”: the “soluble fraction (log2)” value is -1.37.

“HMESIEAGTFELDNKTSIDISEDEANLLNKMFEELTETNSKDMYGVMVADEAGFNEILEFAKENL”: the “soluble fraction (log2)” value was -0.551.

Regarding “HMESNWLTYAKRIQSIADTGMTFAVDDFDKERYQELADISSKMLADLSNIPIGRIENLLGPLGQ”, the “soluble fraction (log2)” value is -1.26.

As for “HMESPVNTLPEDQRAWYKALPPELSTKTAVEAGAGVGVSERTVKRLLSNQTFFINLQRGNYRKRH”, the “soluble fraction (log2)” value came out at 0.314.

Consider “HMESRMTYLQKTKLATENLDAKLIDHQQWVAEVLGEDYRGVYSDEYLRRAAKVFAIFVNNLDD”, for which the “soluble fraction (log2)” value was -1.41.
